Values of other authors in paper PMC7481795.
Read-outs that look alike come from different tables or passages of the source.

Assays:
[1] = target: β-glucuronidase (Homo sapiens) (UniProt P08236)
[2] = target: β-glucuronidase (Homo sapiens) (UniProt P08236); remark: listed apart in the source

β-glucuronidase (Homo sapiens), sequence (P08236 23-651): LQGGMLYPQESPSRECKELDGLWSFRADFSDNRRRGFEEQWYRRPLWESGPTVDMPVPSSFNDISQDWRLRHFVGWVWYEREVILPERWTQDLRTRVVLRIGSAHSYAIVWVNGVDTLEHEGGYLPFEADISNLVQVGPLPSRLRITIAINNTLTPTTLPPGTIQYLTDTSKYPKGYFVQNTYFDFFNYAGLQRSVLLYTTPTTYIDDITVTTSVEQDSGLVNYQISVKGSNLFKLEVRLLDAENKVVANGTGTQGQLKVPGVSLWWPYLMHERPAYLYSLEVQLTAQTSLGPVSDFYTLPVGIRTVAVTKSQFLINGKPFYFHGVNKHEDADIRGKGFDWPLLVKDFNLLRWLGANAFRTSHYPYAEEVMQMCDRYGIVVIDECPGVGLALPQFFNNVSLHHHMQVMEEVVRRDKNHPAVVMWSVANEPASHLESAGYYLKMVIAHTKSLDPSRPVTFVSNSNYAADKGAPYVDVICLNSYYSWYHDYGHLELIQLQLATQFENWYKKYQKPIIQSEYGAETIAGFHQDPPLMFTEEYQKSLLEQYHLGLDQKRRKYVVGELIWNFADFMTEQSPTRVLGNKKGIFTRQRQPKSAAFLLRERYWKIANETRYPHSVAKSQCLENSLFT
cation-independent mannose 6-phosphate receptor domain 3, sequence (P08169 332-477): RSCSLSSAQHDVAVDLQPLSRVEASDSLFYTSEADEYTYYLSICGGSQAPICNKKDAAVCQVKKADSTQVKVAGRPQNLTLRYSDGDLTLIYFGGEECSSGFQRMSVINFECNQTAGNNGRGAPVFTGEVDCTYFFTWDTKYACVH
cation-independent mannose 6-phosphate receptor domains 1-3, sequence (P08169 45-477): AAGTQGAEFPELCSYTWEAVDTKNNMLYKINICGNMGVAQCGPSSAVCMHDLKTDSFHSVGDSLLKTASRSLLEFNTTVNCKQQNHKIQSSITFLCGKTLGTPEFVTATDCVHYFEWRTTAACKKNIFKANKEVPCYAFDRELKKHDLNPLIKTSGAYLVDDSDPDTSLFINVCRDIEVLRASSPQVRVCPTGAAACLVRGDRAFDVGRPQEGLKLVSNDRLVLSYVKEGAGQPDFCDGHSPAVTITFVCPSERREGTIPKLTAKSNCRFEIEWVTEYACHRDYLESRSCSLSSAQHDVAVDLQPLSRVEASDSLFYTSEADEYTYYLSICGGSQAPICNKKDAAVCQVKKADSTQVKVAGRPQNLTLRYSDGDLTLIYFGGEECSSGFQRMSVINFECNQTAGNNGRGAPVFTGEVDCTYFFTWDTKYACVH

cation-independent mannose 6-phosphate receptor domain 3 (from UniProt P08169)
Kd [1]: 500 nM

cation-independent mannose 6-phosphate receptor domains 1-3 (from UniProt P08169)
Kd [2]: 0.5 nM
